Reference: patent US20230399393A1, “METHODS TO EXTEND HEALTH-SPAN AND TREAT AGE-RELATED DISEASES” (National University of Singapore, priority 2020, published 2023)

Columns and labels:
C57Bl/6J mice [1] = assay: Analysis of geropathological lesions in tissue sections; type: in vivo, mouse; conditions: at 110 weeks; heart, lung, liver, spleen, kidney, skeletal muscle; vs IgG control antibody
Protocol: (§1) C57Bl/6J mice are randomised to receive either X203 or IgG control antibody at a dose of 40m/kg via IP injection every 3 weeks from age 55 weeks to age 110 weeks.
At 110 weeks, mice are euthanized, sections are prepared from heart, lung, liver, spleen, kidney and skeletal muscle tissues, subjected to hematoxylin and eosin or Masson's trichrome staining and analysed by light microscopy. Tissue sections are evaluated for ageing-associated lesions as described in Snider et al., Geroscience (2019) 40: 97-103 and Snyder et al., Geroscience (2019) 41: 455-465 (both hereby incorporated by reference in their entirety). Analysis is performed by a veterinary pathologist blinded to treatment group.

AML12 cells = assay: In vitro model of senescence induction, qRT-PCR at day 7; type: cell-based, mouse; conditions: 2 ug/ml from day 2, H2O2 0.75 mM, vs isotype-matched control IgG
Protocol: Senescent hepatic mouse cells were generated from cells of the mouse hepatocyte cell line AML12 as described in Tripathi et al., Star Protocols (2020) 1:100064 (hereby incorporated by reference in its entirety).
Briefly, AML12 cells were grown to 50% confluency and senescence was induced by treating the cells with a sub-lethal concentration of H2O2 (0.75 mM) for 1 h, followed by 23 h recovery per day, for a total of 7 days (as described in Tripathi et al., Star Protocols (2020) 1:100064). From day 2 onwards, 2 ug/ml of X209/X203 or isotype-matched control IgG was added to the cultures during the 23h recovery period.
Total RNA was isolated at day 7, and levels of p21 (Cdkn1a), […], Il11 and Tgfb gene expression were evaluated by qRT-PCR. Briefly, total RNA was extracted from cell lysates using Trizol (Invitrogen) followed by RNeasy column (Qiagen) purification. cDNAs were synthesized with iScript™ cDNA synthesis kit (Bio-Rad) according to manufacturer's instructions. Gene expression analysis was performed with either TaqMan (Applied Biosystems) or fast SYBR green (Qiagen) using the StepOnePlus Real-Time PCT System (Applied Biosystems) over 40 cycles. Expression data for p21 (Cdkn1a), Il1b, Il11 and Tgfb were normalised to Gapdh expression, and fold change was calculated using the 2^−ΔΔCt method.

[2] = tested on: Primary human cardiac fibroblasts; assay: IL11 or TGFβ1 stimulated fibroblasts with X203, X209 or IgG, western blot; type: cell-based; conditions: IL11/TGFβ1 10 ng/ml, 24 hours; antibody 2 μg/ml
Protocol: FIG. 19. Western blot image showing the levels of p-ERK, ERK, p-P90RSK, P90RSK, p-LKB1, LKB1, p-AMPK, AMPK, p-mTOR, mTOR, p-p70S6K, p70S6K, p-S6RP, S6RP, SMA, and GAPDH in primary human cardiac fibroblasts that are unstimulated (BL) or stimulated for 24 hours with either IL11 or TGFβ1 in the presence of X203, X209, or IgG (11E10) isotype control. IL11/TGFβ1 (10 ng/ml), IgG/X203/X209 (2 μg/ml).
Primary human cardiac fibroblasts were stimulated with IL11 or TGFβ1, or unstimulated (BL).

C57Bl/6J mice [3] = assay: Analysis of markers of cellular senescence in tissues; type: in vivo, mouse; conditions: at 110 weeks; p16INK4a, p21CIP1, p53, SA-ß-gal; vs IgG control antibody
Excerpt: as §1
At 110 weeks, tissues are harvested from the mice cells of the relevant tissues and analysed for gene and/or protein expression of p16^INK4a, p21^CIP1 and p53, and for SA-ß-gal activity.

C57Bl/6J mice [4] = assay: Ageing pathways in tissues of old mice receiving X203, western blot and densitometry; type: in vivo, mouse; conditions: 110-week old mice
Protocol: The same results are observed in the gastrocnemii (FIGS. 45 and 46), solei (FIGS. 47 and 48) and abdominal fat (FIGS. 49 and 50) of old mice treated with X203.
Male and female C57Bl/6J mice aged 46 weeks were purchased from the Jackson Laboratory. Mice were randomised on a 1:1 basis to receive either 40 mg/kg of X203 or an isotype control IgG antibody (11E10), every 3 weeks (IP), starting from 55 weeks of age. Mice were sacrificed at 110 weeks of age for blood and tissues collection. 12 weeks old male and female C57Bl/6J mice that were used as control were purchased from Invivos (Singapore).
Western blots were carried out on total protein extracts from primary human cardiac fibroblasts (HCFs), hepatic stellate cells (HSCs), hepatocytes, livers, gastrocnemii, solei, and abdominal fats. Cell or tissue lysates were homogenized in RIPA Lysis and Extraction Buffer (89901, Thermo Scientific) containing protease and phosphatase inhibitors (Roche). Protein lysates were separated by SDS-PAGE, transferred to PVDF membranes, blocked for 1 h with 3% BSA, and incubated overnight with either phospho-ACC (11818, CST), ACC (3676, CST), phospho-AMPK (2535, CST), AMPK (5832, CST), phospho-ERK1/2 (4370, CST), ERK1/2 (4695, CST), GAPDH (2118, CST), phospho-LKB1 S428 (3482, CST), phospho-LKB1 (S325), LKB1 (3047, CST), (phospho-mTOR (2971, CST), mTOR (2972, CST), p16 (ab232402, Abcam), p21 (64016, CST), phospho-p70S6K (9205, CST), p70S6K (2708, CST), phospho-S6 ribosomal protein (4858, CST), or S6 ribosomal protein (2217, CST). All primary antibodies are diluted 1:1000 in 1% BSA. Protein bands were visualized using the ECL detection system (Pierce) with anti-rabbit HRP (1:2000 in 3% BSA, 7074, CST).

C57Bl/6J mice [5] = assay: Body-composition assessment via echo MRI; type: in vivo, mouse; conditions: baseline age 55 weeks vs 108-109 weeks, vs IgG control
Protocol: From age 55 weeks (human equivalent of ˜45 years old (i.e. middle age)) to age 110 weeks (human equivalent of ˜75 years old), mice were administered with 40 mg/kg of either X203 or isotype-matched control IgG via intra-peritoneal injection every 3 weeks.
Mice also underwent body-composition assessment via echo MRI both at baseline (age 55 weeks) and at 108-109 weeks. This enabled calculation of the change in body fat mass and lean (muscle) mass in the X203 and IgG control treatment groups. Gastrocnemius and soleus muscles were also harvested from the mice at age 110 weeks and their weights were recorded. Data were analysed by 2-way ANOVA.
End-point total body fat and lean mass measurements were performed 2 days prior to sacrifice by EchoMRI analysis using 4in1 Body Composition Analyzer for Live Small Animal.

[6] = compared with the liver results

B1: X203: mouse anti-mouse IL-11 IgG antagonist antibody; VH SEQ ID NO:22, VL SEQ ID NO:23 (antibody, V domains shown)
VH: EVQLQQSGPELVKPGASVKIPCKASGYTFTDYNMDWVKQSHGKSLEWIGDINPHNGGPIYNQKFTGKATLTVDKSSSTAYMELRSLTSEDTAVYYCARGELGHWYFDVWGTGTTVTVSS
VL: DIVLTQSPASLAVSLGQRATISCRASKSVSTSGYSYIHWYQQKPGQPPKLLIYLASNLDSGVPARFSGSGSGTDFTLNIHPVEEEDAATYYCQHSRDLPPTFGGGTKLEIK
- geropathology lesions (C57Bl/6J mice [1]): fewer, smaller and/or less developed
- gene expression of Il11 (AML12 cells): trended towards a reduced level
- gene expression of Tgfb (AML12 cells): significantly reduce
- level of phosphorylation of markers ERK, p90RSK, LKB1, mTOR, p70S6K and S6RP [2]: significantly reduce
- levels of markers of cellular senescence (C57Bl/6J mice [3]): lower
- ERK/LKB1/mTORC1 activity, AMPK activity, p16 and p21 expression in gastrocnemii (C57Bl/6J mice [4]; [6]): same results
- ERK/LKB1/mTORC1 activity, AMPK activity, p16 and p21 expression in solei (C57Bl/6J mice [4]; [6]): same results
- AMPK activity in livers (C57Bl/6J mice [4]; vs IgG control): more
- ERK/LKB1/mTORC1 activity in livers (C57Bl/6J mice [4]; vs IgG control): less
- expression of key senescence markers (p16 and p21) in livers (C57Bl/6J mice [4]; vs IgG control): less
- fat mass gained (change in body fat mass) (C57Bl/6J mice [5]): significantly less
- lean mass (C57Bl/6J mice [5]): significantly greater
